Reference: PMC4605297

Target: T1, SsOGT wild type (Sulfolobus solfataricus) (UniProt Q97VW7)
T1 sequence: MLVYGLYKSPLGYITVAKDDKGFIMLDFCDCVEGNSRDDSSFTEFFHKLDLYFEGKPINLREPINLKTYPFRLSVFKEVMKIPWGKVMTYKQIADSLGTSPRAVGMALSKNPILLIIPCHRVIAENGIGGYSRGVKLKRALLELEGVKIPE
Experiment: competition
Settings: EMSA: 0-25 uM protein, 0.2 uM probe, 37 C 10 min, 10 ul, buffer as ref. 17, 8% native PAGE in 1X TBE pH 8.3, competition: BG-VG assay, 50 C under ref. …

Sequence: GGACACTGTACGTTAAGGCGGATCGAATTAGGATTAA / GGTTAATCCTAATTCGATCGCCTTAACGTACAGTGT [ds-UPm]
- Ki (O6-methylguanine at position 21 of strand 1): 280 nM

Sequence: GGCAGTAGGCCTAGCATGACAATCTGCATTGGTGATCACGG / CGCTCATCCACAATGCAGATTGTCATGCTAGGCCTACTGCC [ds-Fwdm26]
- Ki (O6-methylguanine at position 26 of strand 1): 830 nM
